Experimental data from patent publication US11549115B2, “Compositions and methods for regulated gene expression” (YALE UNIVERSITY, priority 2017, dated 2023).
Numbering of substitutions follows the chain as printed.

Legend:
sialidases = settings: cited from earlier work
B. thetaiotaomicron [1] = settings: cited from earlier work
B. thetaiotaomicron [2] = assay: Polymyxin B susceptibility (MIC, E-test strips); assay type: cell-based, Bacteroides thetaiotaomicron; settings: for PMB resistance of B. thetaiotaomicron lpxF mutant expressing lpxF from the promoter: no TetR
Description: Minimum inhibitory concentrations (MICs) were determined on solid medium using E-test strips (Biomerieux) as previously described (Cullen, T. W. et al., 2015, Science, 347:170-175), except that cultures were initially grown for 18 hours in liquid medium. Cultures were adjusted to OD600˜1.0 and 100 μL of cell suspension was then spread onto BHI-blood agar plates. Surface liquid was allowed to dry in a fume hood for 10 minutes, followed by application of the E-test strip to the agar surface.

[3] = system: NanoLuc luciferase reporter in B. thetaiotaomicron; assay: NanoLuc luciferase assay from in vitro samples (promoter activity); assay type: cell-based, Bacteroides thetaiotaomicron
Description: The NanoLuc luciferase assay was performed as described (Mimee, M. et al., 2015, Cell Syst., 1:62-71), with the following modifications. All strains were first grown for 18 hours in TYG medium or Gut Microbiota Medium and diluted 250-fold into fresh medium in appropriate conditions (with or without aTC). Cultures were grown to mid exponential phase (OD600 0.3-0.4) and colony forming units (CFU) were measured by dilution plating. 500 μL of the culture was centrifuged at 21,130×g for 3 minutes, resuspended in 50 μL 1× BugBuster (Novagen) in 1×PBS and lysed by one cycle of freeze-thaw and nutation at 26° C. for 10 minutes. Lysates were cleared of cellular debris by centrifugation at 21,130×g for 10 minutes at 4° C. 10 μL of the supernatant was mixed with an equal volume of NanoLuc Reaction Buffer using the Nano-Glo Luciferase Assay System (Promega) and incubated for 5 minutes at 26° C. to induce luminescence production. Relative Light Units (RLU) were measured using a fluorescence plate reader (BioTek Synergy H1) with an integration time of 1 second at a gain setting of 100. Luminescence values were normalized to colony forming units (CFUs) because experimental conditions (e.g., growth medium, antibiotics, aTC, heterologous gene expression) affect the correlation between CFUs and OD600 in Bacteroides.

B. thetaiotaomicron [4] = assay: aTC-induced expression of periplasm-targeted T6SS effectors (viability, culture density); assay type: cell-based, Bacteroides thetaiotaomicron; settings: under P1TDP in Bt::tetR, aTC added
From the text: To direct Bte1 and Bfe1 to the periplasm upon expression in B. thetaiotaomicron, the genes encoding each effector were first PCR amplified from genomic DNA purified from B. fragilis NCTC 9343 and B. fragilis 638R, respectively, using the CTAB method. A periplasmic localization signal was searched for that would be cleaved after translocation to prevent steric hindrance of the effector. To identify proteins that encode N-terminal B. thetaiotaomicron periplasmic localization signals that are post-translationally cleaved after protein translocation, the proteome of the Bacteroides thetaiotaomicron VPI-5482 chromosome was searched for signal peptides (PTM/Processing; Molecule Processing, Signal Peptide) using UniProt (UniProt Consortium, 2015, Nucleic Acids Research, 43:D204-D212). To exclude membrane proteins that potentially encode an uncleaved signal peptide, the search was refined by an additional query for the term “periplasmic” under Protein name. To identify a short periplasmic signal, the maximum length for the signal peptide was set at 20 amino acids. […] Therefore, the B. fragilis effectors were fused at the 5′ end (minus the ATG start codon) to the first 63 base pairs (encoding the first 21 amino acids) of the BT4676 open reading frame (see Table 2 for sequence) in order to localize them to the periplasm after expression in B. thetaiotaomicron.

## CC(=O)N[C@H]1[C@H]([C@H](O)[C@H](O)CO)O[C@@](Oc2ccc([N+](=O)[O-])cc2)(C(=O)O)C[C@@H]1O [pNP-SA, 2-O-(p-Nitrophenyl)-t-D-N-acetylneuraminic acid]
sialidases
  Km: 110 µM

## polymixin B [PMB]
B. thetaiotaomicron [1]
  reduction of PMB resistance by deletion of lpxF: four orders of magnitude
B. thetaiotaomicron [2]; Bt::tetR lpxF carrying P1TDP-lpxF fusion, TetR repressed, no aTC
  PMB MIC: < 0.064 µg/mL
B. thetaiotaomicron [2]; Bt::tetR lpxF, no aTC
  reduction of PMB MIC by TetR repression of P1TDP-lpxF: over 10,000 fold
B. thetaiotaomicron [2]; wildtype B. thetaiotaomicron
  PMB MIC: > 1024 µg/mL

B1: P1: Constitutive promoter of Bacteroides 16S rDNA (BT_r09 P1) (nucleic acid)
DNA: TTTTGCACCCGCTTTCCAAGAGAAGAAAGCCTTGTTAAATTGACTTAGTGTAAAAGCGCAGTACTGCTTGACCATAAGAACAAAAAAACTTCCGATAAAGTTTGGAAGATAAAGCTAAAAGTTCTTATCTTTGCAGTC
modifications: Constitutive promoter (last nucleotide is +1 TSS)
B. thetaiotaomicron [2]
  PMB resistance of B. thetaiotaomicron lpxF mutant expressing lpxF from the promoter: increases PMB resistance to wildtype levels
[3]; Bt::tetR, no aTC
  effect of TetR on promoter activity: no effect

B2: P1TP: Synthetic aTC-inducible promoter (proximal tetO2) + RBS GH023 (nucleic acid)
DNA: TTTTGCACCCGCTTTCCAAGAGAAGAAAGCCTTGTTAAATTGACTTAGTGTAAAAGCGCAGTACTGCTTGACCATAAGAACAAAAAAACTTCCGATAAAGTTTGGAAGATAAAGCTAAAAGTTCTTATCTTTGCAGTCTCCCTATCAGTGATAGAGACGAAATAAAGACATATAAAAGAAAAGACACCATG
modifications: P1TPSynthetic aTC-inducible promoter (proximal tetO2)+RBS GH023
B. thetaiotaomicron [2]
  PMB resistance of B. thetaiotaomicron lpxF mutant expressing lpxF from the promoter: increases PMB resistance to wildtype levels

B3: ss-Bte1: Periplasmic localized T6SS effector from B. fragilis NCTC 9343 (protein)
chain: MKKILSLLVMAIVAIQFSFAGGKEIEIKKLPEFEAMVNAGNTTYTGLVEGIGYVYWTTETLYFIRTNPEQLWAIPKYQQIPFPYFQRKDAIIETKTLHTLHVLSKDELLKLDYDAYYAFYGIVEEMLKFIHRADAIKSYCEIPLPIIKSKGALKGNDARNGILSLGSQINDQIGAPLDAANMLMDNKHIGKIGDGLSLISIIDEVGNGEYWSAAGDILLFAAGKTKLSPYMTVISLGTWMYETDLMQWRLACINYSDYKKTLIKYRELQKKFESGDKSVEEKMNECHKILNSHYIEMQKNLGNLGVKF
modifications: Periplasmic-localized T6SS effector from B. fragilis NCTC 9343
B. thetaiotaomicron [4]
  toxicity on expression in B. thetaiotaomicron: highly toxic

B4: P1TD: Synthetic aTC-inducible promoter (distal tetO2) + RBS GH023 (nucleic acid)
DNA: TTTGCACCCGCTTTCCAAGAGAAGAAAGCCTTGTTAAATTGACTTAGTGTAAAAGCGCAGTACTGCTTGACCATAAGAACAAAAAAATCTCTATCACTGATAGGGATAAAGTTTGGAAGATAAAGCTAAAAGTTCTTATCTTTGCAGTCCGAAATAAAGACATATAAAAGAAAAGACACCATG
modifications: P1TD Synthetic aTC-inducible promoter (distal tetO2)+RBS GH023
B. thetaiotaomicron [2]
  PMB resistance of B. thetaiotaomicron lpxF mutant expressing lpxF from the promoter: increases PMB resistance to wildtype levels

B5: P2: Constitutive promoter of Bacteroides 16S rDNA (nucleic acid)
DNA: AAGAAAAGGCGTTTTGTTTTTCTTCTTTACCTTCTTTCCCTTTCGCTAAGAGAGTCTGAGAAACGATAGAAAAAGAAAAGCGAAAAAACTTCCGAAAACATTTGGTAGTTAAAATAAAACCTCTTACCTTTGCACCC
modifications: P2 Constitutive promoter (last nucleotide is +1 TSS)
notes: Constitutive promoter of Bacteroides 16S rDNA
B. thetaiotaomicron [2]
  PMB resistance of B. thetaiotaomicron lpxF mutant expressing lpxF from the promoter: increases PMB resistance to wildtype levels

B6: P1TDP^B40: Synthetic aTC-inducible promoter (distal and proximal tetO2) + RBS B40 (nucleic acid)
DNA: TTTGCACCCGCTTTCCAAGAGAAGAAAGCCTTGTTAAATTGACTTAGTGTAAAAGCGCAGTACTGCTTGACCATAAGAACAAAAAAATCTCTATCACTGATAGGGATAAAGTTTGGAAGATAAAGCTAAAAGTTCTTATCTTTGCAGTCTCCCTATCAGTGATAGAGACGCATTTTAAAATAAAATAAATCATGTAGTTAATTAAACGAATCCATG
modifications: P1TDP-B40 Synthetic aTC-inducible promoter (distal and promixal tetO2)+RBS B40
[3]; Bt::tetR
  increase of dynamic response to aTC over P1TDP^GH023: 3.3 fold
[3]; Bt::tetR (TetR present), no aTC
  reporter expression relative to background in uninduced state: 1.4 fold
[3]; Bt::tetR, aTC 100 ng/mL
  induction of reporter activity (luminescence) in response to aTC: 9,100 fold

B7: P1TDP^C56: Synthetic aTC-inducible promoter (distal and proximal tetO2) + RBS C56 (nucleic acid)
DNA: B6 DNA with C191T, G194T, T195C, A196G, G197T, A201G
modifications: P1TDP-C56 Synthetic aTC-inducible promoter (distal and promixal tetO2)+RBS C56
[3]; OFF state, 18 native B. thetaiotaomicron promoters
  luminescence lower than the weakest native promoter tested: 6.7 fold

B8: P1TDP^A21: Synthetic aTC-inducible promoter (distal and proximal tetO2) + RBS A21 (nucleic acid)
DNA: B6 DNA with C191T, G194T, G197T, T198G, T199A, A200T
modifications: P1TDP-A21 Synthetic aTC-inducible promoter (distal and promixal tetO2)+RBS A21
[3]; ON state, 18 native B. thetaiotaomicron promoters
  luminescence higher than the strongest native promoter tested: 14 fold

B9: ss-Bfe1: Periplasmic localized T6SS effector from B. fragilis 638R (protein)
chain: MKKILSLLVMAIVAIQFSFAGAYRNEYKTQSEFNVILERGDDYEGFVVGLGYTWMSSKVILPVNQNGWSPISRNVSVDESFHTIVSERKYDTSQYAYEKSLMQDPTKVSEKVRDLIVKNKGNNITEINLGQEKQYLPTDNSQISIVITDTGSRYEIVISATDNSNGKTYEAKYESLTDLVSAVRDSGSLPAVNKEGPNLEGLAGLGFGIAETAGNWAEKIMDNRGAYLPKQMRFSPKTLPPIIRLPLGNYQVPAKGMSRVRGVGKALGWAGMVLTGYQVVRDVQNGRFAVAGTRIAVAGLAYGVTFIPYVGWVLAIGIGVADYTWGDEFYDWIDNRASELEMWWDGVRLAL
modifications: Periplasmic-localized T6SS effector from B. fragilis 638R
B. thetaiotaomicron [4]
  toxicity on expression in B. thetaiotaomicron: highly toxic
